Assay results published in US20050153896A1 (published 2005).
Ends that are not written are not given here.

Assays:
[1] = biological target: Aβ 1-42 (beta-amyloid protein 1-42), pre-formed fibrils; assay: cell-based or functional assay
[2] = biological target: Aβ (beta-amyloid protein, length not stated at the place); assay: cell-based or functional assay
[3] = biological target: T1, Aβ 1-40 (beta-amyloid protein 1-40); assay: solid phase binding immunoassay; ~55 kDa laminin fragment immobilized on microtiter plates, increasing concentrations of Aβ (1-40)
T1 construct: Bought from Bachem; Residues 1-40 are counted on Aβ itself; also called Alzheimer's Aβ

Row | disruption of pre-formed Aβ 1-42 fibrils (Thioflavin T fluorometry), Aβ:peptide molar ratio 1:10 [1] [%] | inhibition of Aβ fibril formation, Aβ:peptide molar ratio 1:1 [2] [%] | Kd [3] [nM] | Binder
1 | 81 | 50 | – | RKRLQVQLSIRT-NH2 [AG73 peptide (laminin alpha-1 chain globular domain-derived peptide)]
2 | – | – | 2 | ~55 kDa laminin fragment obtained by elastase digestion of EHS mouse laminin (other, UniProt P19137 2690-3083, looked up, domain: C-terminal globular domains of the laminin A1 chain; also called ~55 kilodalton laminin fragment; ~55 kDa fragment of laminin) HREHGELPPEPPTLPQPELCAVDTAPGYVAGAHQFGLSQNSHLVLPLNQSDVRKRLQVQLSIRTFASSGLIYYVAHQNQMDYATLQLQEGRLHFMFDLGKGRTKVSHPALLSDGKWHTVKTEYIKRKAFMTVDGQESPSVTVVGNATTLDVERKLYLGGLPSHYRARNIGTITHSIPACIGEIMVNGQQLDKDRPLSASAVDRCYVVAQEGTFFEGSGYAALVKEGYKVRLDLNITLEFRTTSKNGVLLGISSAKVDAIGLEIVDGKVLFHVNNGAGRITATYQPRAARALCDGKWHTLQAHKSKHRIVLTVDGNSVRAESPHTHSTSADTNDPIYVGGYPAHIKQNCLSSRASFRGCVRNLRLSRGSQVQSLDLSRAFDLQGVFPHSCPGPEP
